Test results: patent US20260234242A1 (HAINAN SIMCERE ZAIMING PHARMACEUTICAL, published 2026)
Residue numbers refer to the chain shown, from its start.

T1: human CDH6 on tumor cells (OVCAR3 cells, PA-1 cells) (human, UniProt P55285 54-790)
T1 sequence: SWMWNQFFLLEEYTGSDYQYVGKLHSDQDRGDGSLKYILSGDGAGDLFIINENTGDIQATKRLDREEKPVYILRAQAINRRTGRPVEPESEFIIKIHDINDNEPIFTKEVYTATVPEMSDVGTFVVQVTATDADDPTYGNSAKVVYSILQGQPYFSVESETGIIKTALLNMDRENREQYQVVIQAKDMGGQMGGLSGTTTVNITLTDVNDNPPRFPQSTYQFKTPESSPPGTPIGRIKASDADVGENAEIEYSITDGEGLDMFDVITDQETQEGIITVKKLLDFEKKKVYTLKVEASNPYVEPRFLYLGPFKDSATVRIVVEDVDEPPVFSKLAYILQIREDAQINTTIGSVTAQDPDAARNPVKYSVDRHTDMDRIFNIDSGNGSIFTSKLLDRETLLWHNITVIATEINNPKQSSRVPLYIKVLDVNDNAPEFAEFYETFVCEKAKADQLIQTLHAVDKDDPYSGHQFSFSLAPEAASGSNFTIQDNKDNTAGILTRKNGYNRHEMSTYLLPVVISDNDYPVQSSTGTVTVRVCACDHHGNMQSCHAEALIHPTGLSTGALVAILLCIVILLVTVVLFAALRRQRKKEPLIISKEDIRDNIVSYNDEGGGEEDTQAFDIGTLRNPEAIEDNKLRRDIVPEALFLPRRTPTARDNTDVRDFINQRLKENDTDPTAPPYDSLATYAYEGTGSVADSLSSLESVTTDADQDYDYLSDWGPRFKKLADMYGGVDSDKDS

B1: CHI-CDH6-5 (antibody, human IgG1, kappa, V domains shown)
VH: QVQLQQSGAELVRPGTSVKMSCKAAEYTFTNYWIGWVKQRPGHGLEWIGDLYPGGDHANYNEKFEGKATLTADTSSSTAYMQLSSLTSEDSAIYYCARGMLTTGFDSWGQGTTLTVSS
VL: DIVMSQSPSSLAVSAGEKVTMSCKSSQSLFNSRTRKNYLAWYQQKPGQSPKLLIYWASTRESGVPDRFTGSGSGTDFTLTISSVQAEDLAVYYCKQSYYLRTFGGGTKLEIKR
notes: also called CH1-CDH6-5; chimeric antibody of murine CDH6-5
B2: CHI-CDH6-11 (antibody, human IgG1, kappa, V domains shown)
VH: QIQLQQSGPELVKPGASVRISCKASGYTFTDYYITWVKLRPGQGLEWIGWIYPGSVNIKYNEKFKGKATLTVDTSSSTAYMQLNSLTSEDSAVYFCARGGYSWFPYWGQGTLVTVSA
VL: NIVMTQSPKSMSMSVGERVTLSCKASENVHTYVSWYQQKPEQSPKLLFYGASTRNTGVPDRFTGSGSATDFTLTISSVQAEDLADYYCGQSYSYPYTFGSGTKLEIKR
notes: also called chimeric antibody of murine CDH6-11
B3: CHI-CDH6-4 (antibody, human IgG1, kappa, V domains shown)
VH: QVQLQQSGPELVKPGASVKISCKASGYAFSNFWMNWVKQRPGKGLEWIGWIYPGDGDTNYNGKFKDKATLTADKSSSTAYIQLSSLTSEDSAVYFCARLYDAWGFFDYWGQGTTLTVSS
VL: QIVLTQSPAIMSASPGQKVTITCSASSSVNYMHWYQQKLGSSPKLWIYDKSKLAPGVPARFSGSGSGTSYSLTISSMEAEDAASYFCHQWSSYPPMTFGGGTKLEIKR
notes: also called CH1-CDH6-4; chimeric antibody of murine CDH6-4
B4: CHI-CDH6-3 (antibody, human IgG1, kappa, V domains shown)
VH: QVQLQQPGAELVKPGASVKLSCKASGYTFTSYWIHWVKQRPGQGLEWIGEINPSNGVTNCNENFKSKATLTVDKSSSTAYMQLSSLTSEDSAVYYCTIPNLLWWYFDVWGAGTTVTVSS
VL: DIQMTQSPASLSVSVGETVTITCRASENIYSNLAWYQQKQGKSPQLLVYEATNLADGVPSRFSGSGSGTQYSLKINSLQSEDFGSYYCQHFWGTLWTFGGGTKLEIKR
notes: also called CH1-CDH6-3; chimeric antibody of murine CDH6-3
B5: CHI-CDH6-9 (antibody, human IgG1, kappa, V domains shown)
VH: QVQLQQPGAELVKPGASVKLSCKASGYTFTGYWMHWVRQRPGQGLEWIGEINPNNGGTNCNEQFKNKATLTVDKSSSTAYMQLSSLTSEDSAVFYCTISFGNYLFFDVWGAGTTVTVSS
VL: DIQMTQSPASLAASVGETITITCQASENIYFSLAWYQQKQGKSPQLLIYNANTLEDGVPSRFVGSGSGTQYSMKINSIQPEDTATYFCDQTYDFPWTFGGGTKLEIKR
notes: also called chimeric antibody of murine CDH6-9
B6: CHI-CDH6-2 (antibody, human IgG1, kappa, V domains shown)
VH: EVQLQQSGPELVKPGASVRISCKASGYTFTDYYMNWVKQSHGKSLEWIGDIDPNNANTTYNQKFKGKATLTVDKSSSTAYMELRSLTSEDSAVYSCASFGYDVEWFGYWGQGTLVTVSA
VL: QIVLTQSPALMSASPGEKVTMTCSASSSVSYMYWYQQKPRSSPKPWIYLTSNLASGVPARFSGSGSGTSYSLTISSMEAEDAATYYCQQWSSNPFTFGSGTKLEIKR
notes: also called chimeric antibody of murine CDH6-2
B7: CHI-CDH6-12 (antibody, human IgG1, kappa, V domains shown)
VH: EVNLVESGGGLVQPGDSLTLSCSASGFTFTDYYMSWVRQFPGKALEWLALIRNKANSYTTEYSASVKGRFTISRDNSQSILYLQMNALRAEDSATYYCARDSYYSHDGFAYWGQGTLVTVSA
VL: DIVLTQSPASLAVSLGQRATISCRASKSVSTSSYTYMHWYQQKPGQPPKLLIKFASYLESGVPARFSGSGSGTDFTLNIHPVEEEDAATYYCQHSREFPFTFGTGTKLEIKR
notes: also called CH1-CDH6-12; chimeric antibody of murine CDH6-12
B8: CHI-CDH6-1 (antibody, human IgG1, kappa, V domains shown)
VH: QVQLQQPGAELVRPGSSVKLSCKASGYTFTNYWMHWVKQRPIEGLEWIGDIDPSHSETHYTQKFKDKATLTVDKSSSTAYMQLSSLTSEDSAVYYCARGDLGRFDYWGQGTTLTVSS
VL: DIVLTQSPASLAVSLGQRATISCRASESVSIHGTHLMHWYQQKSGQPPKLLIYAASNLESGVPARFSGSGSETDFTFNIHPVEEEDAATYFCQQSFEDPWTFGGGTKLEIKR
notes: also called CHI-hCDH6-1; CH1-CDH6-1
B9: CHI-CDH6-10 (antibody, human IgG1, kappa, V domains shown)
VH: QVQLQQPGAELVKPGTSVKMSCKASGYTFTSDWIAWVKQRPGQGLEWIGDIYPGSGRTHNNEKFNFKATLTVDTSSNTAYMQLSSLTSEDSAVYFCARPMLGRFDYWGQGTTLTVSS
VL: B8 VL with S44P, F77L, W100F, G104S
notes: also called chimeric antibody of murine CDH6-10
B10: CHI-CDH6-6 (antibody, human IgG1, kappa, V domains shown)
VH: EVQLQQSGPELVKPGDSVKMSCKASGYTFTDYYMAWVRQSHRKSLEWIGYIFPNSGGTDYSQKFKGKATLTVDKSSSTVYMELHSLTSEDSAVYYCARELGADYGDYYAMDHWGQGTSVSVSS
VL: DIQMTQSPASLSASVGETVTITCRASENIDSYLAWYQQKQGKSPQLLVYSATLLADGVPSRFSGSGSGTQYSLKINSLKSEDVARYYCQHYYRTPPTFGSGTKLEIKR
notes: also called CHI-hCDH6-6; chimeric antibody of murine CDH6-6
B11: CHI-CDH6-7 (antibody, human IgG1, kappa, V domains shown)
VH: EVKLVESGGGLVKPGGSLKVSCAASGFTFSDHGMAWVRQAPGKGPEWVAFISNLAYSIYYADTVTGRFTISRENAKNTLYLEMSSLRSEDTAMYYCARVYVKWYFDVWGAGTTVTVSS
VL: B10 VL with Y49F, S50A, K79Q, R93S, P96L, S100A, I106L
notes: also called CH1-CDH6-7; chimeric antibody of murine CDH6-7
B12: CHI-CDH6-8 (antibody, human IgG1, kappa, V domains shown)
VH: EVQLQQSGPELVKPGDSVKMSCKASGYTFTDYYMAWIKQNHGKSLEWIGYIYPNNGGTDYNQKFRGKATLTVDKSSSAAYMELHSLTSEDSAVYYCAREIGTLYGDYYAMDYWGQGTSVTVSS
VL: B10 VL with S50T, K79Q, R93S
notes: also called chimeric antibody of murine CDH6-8

The binders below were run against T1, human CDH6 on tumor cells (OVCAR3 …) (assay: FACS, OVCAR3 cells, 4° C. arm of endocytosis assay, antibody diluted to 10 µg/mL).
Description: OVCAR3 cells were cultured until a confluence of 90% was reached, the medium was removed by pipetting, the cells were washed once with PBS, and then treated with an enzyme-free cell dissociation solution (Versene, purchased from Gibco, Cat. No. 15040-066) and the cells were collected. The cells were washed once with PBS, counted, resuspended to 2×10⁶ cells/mL in an FACS buffer (PBS+2% FBS), and then added to two 96-well plates at 50 μL/well. The chimeric antibodies were diluted with FACS buffer (PBS+2% FBS) to 10 μg/mL and separately added to the two 96-well plates at 50 μL/well, and the plates were incubated at 4° C. for 1 h. After the cells were washed 3 times with PBS, the cells were resuspended in an FACS buffer. One 96-well plate was incubated at 4° C. for 1 h, and the other 96-well plate was incubated at 37° C. for 1 h. […] After the plates were centrifuged and washed 2 times with PBS, the cells were resuspended in an FACS buffer. The mean fluorescence intensity (MFI) was measured using FACS Canton II (BD). The chimeric antibodies tested all had good endocytic activity.

Binder	MFI_4° C. [MFI]
B1	8810
B2	10400
B3	9520
B4	9280
B5	11000
B6	11100
B7	5740
B8	10600
B9	10100
B10	9930
B11	5580
B12	10100

These binders were tested against T1, human CDH6 on tumor cells (OVCAR3 …) (assay: FACS, PA-1 cells).
Description: (§1) OVCAR3 cells with high expression of CDH6 and PA-1 cells with moderate expression of CDH6 were used to detect the binding activity of the antibodies to the cells. […] The cells were washed once with PBS, counted, resuspended to 2×10⁶ cells/mL in an FACS buffer (PBS+2% FBS), and then added to a 96-well plate at 50 μL/well. The chimeric antibodies were diluted with FACS buffer (PBS+2% FBS) and added to the 96-well plate at 50 μL/well, and the plate was incubated at 4° C. for 1 h. […] The dilution was added to the 96-well plate at 50 μL/well, and the plate was incubated at 4° C. for 1 h. After the plates were centrifuged and washed 2 times with PBS, the cells were resuspended in an FACS buffer. The mean fluorescence intensity (MFI) was measured using FACS Canton II (BD). Analysis was performed by the GraphPad Prism software, data were fitted, and EC50 values were calculated. The chimeric antibodies tested had strong binding to both OVCAR3 cells and PA-1 cells.

Binder	EC50 [nM]	Max MFI [MFI]
B1	0.49	4560
B2	1.78	4690
B3	2.48	3990
B4	0.13	3870
B5	0.16	4400
B6	0.2	4760
B7	2.27	3150
B8	0.1	4390
B9	0.08	4070
B10	0.43	4630
B11	7.57	2470
B12	0.23	4710

Each binder was assayed against T1, human CDH6 on tumor cells (OVCAR3 …) (assay: FACS, OVCAR3 cells).
Description: as §1

Binder	EC50 [nM]	Max MFI [MFI]
B1	0.57	12700
B2	2.14	14500
B3	3.17	14000
B4	1.16	15500
B5	0.51	18200
B6	0.36	15600
B7	2.22	12500
B8	0.13	14700
B9	0.2	13900
B10	0.67	14800
B11	5.57	12000
B12	0.46	16100
